# In the supplement of paper PMC12764529:
# ± gives the half width of the 95% confidence interval.
# Experiment: folding stability dG unfold from trypsin proteolysis; higher = more stable
# Summary of the method: (§1)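 Sequencing followed digestion of designed mini-proteins with trypsin and chymotrypsin, each at 11 concentrations in threefold dilutions together with a no-protease condition. The mini-proteins were under 80 residues, had no cysteine, sat in a PA-tagged cDNA display construct, and were kept only if AlphaFold2 dimer inter-PAE was above 15. From the counts, Bayesian fitting gave K50, and unfolding free energy was derived against a sequence-predicted unfolded-state K50 and a shared folded-state K50, per protease or combined.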
row,Sequence,folding stability dG unfold
1,SAGGSAGGSAGMKIRIELPGMSPEQIEELAKLIPNVRVSITYDKETNRVYVEIEVSEEDLSAGGSAGGSAGG [r11_862_TrROS_Hall],2.38 ± 0.058 kcal/mol
2,SAGGRLVRIKVDIYSPGDGEPHEFEFLLHVDANGSVEIYFPNGKRIRIPPNMKVKIKDIEVLDPDQISAGGS [r16_223_TrROS],2.56 ± 0.089 kcal/mol
3,SKKTVTIELYVPNMTPEQLRALLEALGYKVKKEEFDEDRGVVRLTVELPEDGTTITITIVRPPLPPGEKPSA [r9_1090_TrROS_Hall],2.25 ± 0.12 kcal/mol
4,SAGGSAGGSAGMRYEIEVEEVPPGLVRIRVRVDGKEYTILISEEEAKRLAEELGVEIEPVSAGGSAGGSAGG [r17_109_TrROS_Hall],3.24 ± 0.12 kcal/mol
5,SMVTETSEEVKLPSPVRLLIDKKITTFPESGVVEVPTLVTVIPPSGPDTTLPYRVLYTINDDTYTEKRLLSA [r9_154_JUSTAS],-0.277 ± 0.085 kcal/mol
6,SAGGSAGGSAGMSVSLTSTTVSLPPELLSPEEAARTEDAVVTTTTSTLPAVVDPATGTVTSAGGSAGGSAGG [r17_310_JUSTAS],1.92 ± 0.057 kcal/mol
7,SAGGSAGGSAMRINIKLPGVETESVEVDPEKGMITARLKFPEGRKVEISFFPDGNVKIHPVSAGGSAGGSAG [r3_348_TrROS],1.14 ± 0.05 kcal/mol
8,SAGGSAGGSAGKKKKIFLIKIEVVKVKVEKRKKKDGKLEEKVEIEIKIEITEIPLPPELLSAGGSAGGSAGG [r11_24_TrROS_Hall],2.81 ± 0.12 kcal/mol
9,SGVLVVTHPDGSVSTVPFTHPDGLVVDISAGVDAPLYATVVRLLPDGTPEPLPVFEFDSIEDVLEALAEASA [r9_942_TrMRF],0.545 ± 0.016 kcal/mol
10,SAGGSAGGSAGMKTVTVTVPPSAGVDAVREALAAQGMTVTSVSREGDTLTVTTEAPPELLSAGGSAGGSAGG [r11_672_JUSTAS],-0.866 ± 0.14 kcal/mol
11,SAGMPLSVEEAIALLRKEIEAIPVPPSVTEIEFEITIPADGRPVKITVKVNEGKLEITVTVGDKPIKIGSAG [r14_199_JUSTAS],1.79 ± 0.14 kcal/mol
12,SAGGSAGGSAGGMKIKTITGDPSTGVYTITFPDGKVETIPMTQEEVEALAKENPGIEITLSAGGSAGGSAGG [r7_175_JUSTAS],0.899 ± 0.035 kcal/mol
13,SAGGPRVFRLTYLDPETGEPRELRFSLPVPPAPDFISVYVNVPPELARRIAELLRELYPDKPVLVHRSAGGS [r8_437_TrMRF],2 ± 0.036 kcal/mol
14,SAGGMLRIRIDGREIEIGMTVEEILAAIEKELGREISPELREALRKAKTPEEIVEALRKLGLKIEIESAGGS [r16_601_TrROS_Hall],3.66 ± 0.08 kcal/mol
15,SAGGSAKPEKVIVLEIEIEMTPEEVKKLVEELLKEKFGVEIERIEVEVERLPDGTLKVRVRVVIRESAGGSA [r15_138_TrROS_Hall],3.31 ± 0.13 kcal/mol
16,SAGMKVTTKTYTLTLTLPDGTRELKVTFTTPPDGYTATITDPNSSKVITLPFSSEEEARSAIEAIAARLSAG [r5_480_JUSTAS],2.48 ± 0.036 kcal/mol
17,SAGGSAGGSAGGLEIVKEVIKNPLKNEPVEVLILIEKKEEPIEKTDLFEIPVKITIIPLSAGGSAGGSAGGS [r10_459_JUSTAS],1.29 ± 0.11 kcal/mol
18,SAGGSAGGSKITVERNEDGELFVRITFKDGKTITIKAKSVEELKEKLKELGFDVKVEVVERKPSAGGSAGGS [r20_124_TrROS_Hall],2.74 ± 0.084 kcal/mol
19,SAGSMPPSTTTSEEVTVGGKKVKRTTTVYRAPNGTPSVTSTYTLGETPGVEDPLSGKALTPEERAAAAASAG [r5_138_JUSTAS],0.417 ± 0.21 kcal/mol
20,SAGGSAGGSAGKLKIKKVKVVKTETFTLPNGYTIKVSYVEVEVDGKKYLFKSVEIYPKKESAGGSAGGSAGG [r11_129_TrROS_Hall],2.02 ± 0.1 kcal/mol
21,SAGGSAGGPLVVILPDPETGLFHVRVRYPDGTVESLGPFPSLEEALEALPSEGLGRVEVRPYLKSAGGSAGG [r6_307_TrMRF],1.05 ± 0.014 kcal/mol

row,Sequence,folding stability dG unfold
1,PFDIRINVEYERDPDNGKEYIEVSIMVWDGNPEQARDIAKEILEEHFGWKIKDVKVERFPDMYMITFKIRLS [r1_337_TrROS],3.46 ± 0.12 kcal/mol
2,SAGGMPLVELEIVLPKEELEKLEEALRKLGYKVVKIEVVEYDPENDLVRVRIVLEKPMTLEELKKALKSAGG [r13_725_TrROS_Hall],3.72 ± 0.11 kcal/mol
3,SAGGSAGGSAGMLIELTVETSVTTVSTPDATFTVVTLKEPGKPETLGTVVYDPATGSPALSAGGSAGGSAGG [r11_645_JUSTAS],0.615 ± 0.036 kcal/mol
4,SIINALREALKDGKPGQEIPIMMPPDGMGELMNWLQDYGFKPKKMEPMPMNNRPMYTHEFTIDPKNGKFRSA [r9_498_TrROS],-0.0613 ± 0.39 kcal/mol
5,SAGGSAGGSAMKTYTLEQIEELLKSLPEEEIEEVKIEEKEGKKVIYVKTKDGREIEIVVEPSAGGSAGGSAG [r3_291_TrROS_Hall],2.86 ± 0.2 kcal/mol
6,SAGTVRLEVTVVIKLTKEQIENLPKDVKLEDGAEIEEKDDYLVIKRTIELPPPVVTDKDGKKLPLEELSAGG [r19_148_TrROS_Hall],0.23 ± 0.17 kcal/mol
7,SAGGIWIPIDRIREALKDGMPLDEIVDKLRKHGFPIDRITGIEPSPNSWTIEIEFPEQGMPIEIQISSAGGS [r8_179_TrROS],1.93 ± 0.052 kcal/mol
8,SMLYRVTTVVVRGDRPLVIPVLADSLEAFLEEAREAIPPELREELPPDAVVRVFVEPVPAVVPEPGEPLPSA [r9_111_TrMRF],1.42 ± 0.057 kcal/mol
9,SAGGMLILIKVKNKKYEIEINGKKIEVEEKDGYLIIKVSPEALEALKKIPNLENIEEIKIFPEEELKSAGGS [r8_493_TrROS_Hall],2.07 ± 0.035 kcal/mol
10,SAGGGKTVVLVTHPDGTPTTITFDPEKPVATITYPDGTTETLPVPPDKTIADLAKALPADYTAVFAPASAGG [r13_696_TrMRF],-0.338 ± 0.13 kcal/mol
11,SAGGGFEEIIEKAIAKAKELFPDTGAVVPITETVYDPVKKKPIVIEVLVEFDKDGKIKKVEILKISELSAGG [r13_770_TrMRF],2.86 ± 0.2 kcal/mol
12,SAEMTEEERARRLAEKLREELEELGVEKVEIEFDEEERRVTVRVTLSPEVREKLAERLGLSREELDALLSAG [r14_688_TrROS_Hall],4.1 ± 0.1 kcal/mol
13,SAGGSAGGSAGGVIVLKSDNSVIIITKKVYTENGKPKKTIIEKKNLKKKPPKPLSIEIISAGGSAGGSAGGS [r10_1043_JUSTAS],0.77 ± 0.067 kcal/mol
14,SAGGSAGGSMRLTVEVSSLEEAEKLAEEIEERFDVEIVRVEVEETEEGGLRVTFDVKLHPDLGSAGGSAGGS [r12_577_TrMRF],2.96 ± 0.16 kcal/mol
15,SAGGSAGGSAGGKPKIEIELTFIDEDGYAYRLRAEIEIDEDGNVHIEVEIEKVPLPEGLSAGGSAGGSAGGS [r10_563_TrROS_Hall],2.9 ± 0.14 kcal/mol
16,SAGGSAGGPPVEERELTLPDGTRLTITRYPDSYTVEVTLPDGTVETRTYPDVTPEEAVAAVKAASAGGSAGG [r6_459_JUSTAS],1.68 ± 0.043 kcal/mol
17,SITIMVDNLPPGATAEELASTLFNWIQQFGWEVTPIKITPMPDNWVTVEIEFKNNGKPIFRETIEFRPDASA [r9_953_TrROS],2.4 ± 0.092 kcal/mol
18,SAGGSAGGYRIRFKNGIEFKLPMTEGELKKMADNFPGFEVTEVEPVPPPPPPPEDLPPEQREQMSAGGSAGG [r6_881_TrROS],-0.134 ± 0.36 kcal/mol
19,SAGGSAGGSAGSIKEALKKLKPGDTVEIEITLKDGSKIKIRVKVIRDKKTKKYKVKIEIESAGGSAGGSAGG [r11_343_TrROS_Hall],4.16 ± 0.47 kcal/mol
20,GSSMTVEVSESVVPGTGKKILHVTVTFGGSDPEVARAQALAYVEKETGLPVVSVTVTRAPDSWTVNMTVVGS [r1_337_JUSTAS],2.86 ± 0.085 kcal/mol

# Experiment: folding stability dG unfold (combined trypsin and chymotrypsin); higher = more stable
# Summary of the method: as §1
row,Sequence,folding stability dG unfold
1,SAGGSAGGSAGMKIRIELPGMSPEQIEELAKLIPNVRVSITYDKETNRVYVEIEVSEEDLSAGGSAGGSAGG [r11_862_TrROS_Hall],2.88 ± 0.051 kcal/mol
2,SAGGRLVRIKVDIYSPGDGEPHEFEFLLHVDANGSVEIYFPNGKRIRIPPNMKVKIKDIEVLDPDQISAGGS [r16_223_TrROS],3.17 ± 0.14 kcal/mol
3,SKKTVTIELYVPNMTPEQLRALLEALGYKVKKEEFDEDRGVVRLTVELPEDGTTITITIVRPPLPPGEKPSA [r9_1090_TrROS_Hall],2.59 ± 0.12 kcal/mol
4,SAGGSAGGSAGMRYEIEVEEVPPGLVRIRVRVDGKEYTILISEEEAKRLAEELGVEIEPVSAGGSAGGSAGG [r17_109_TrROS_Hall],2.76 ± 0.19 kcal/mol
5,SMVTETSEEVKLPSPVRLLIDKKITTFPESGVVEVPTLVTVIPPSGPDTTLPYRVLYTINDDTYTEKRLLSA [r9_154_JUSTAS],-0.125 ± 0.14 kcal/mol
6,SAGGSAGGSAGMSVSLTSTTVSLPPELLSPEEAARTEDAVVTTTTSTLPAVVDPATGTVTSAGGSAGGSAGG [r17_310_JUSTAS],1.39 ± 0.092 kcal/mol
7,SAGGSAGGSAMRINIKLPGVETESVEVDPEKGMITARLKFPEGRKVEISFFPDGNVKIHPVSAGGSAGGSAG [r3_348_TrROS],0.898 ± 0.11 kcal/mol
8,SAGGSAGGSAGKKKKIFLIKIEVVKVKVEKRKKKDGKLEEKVEIEIKIEITEIPLPPELLSAGGSAGGSAGG [r11_24_TrROS_Hall],2.94 ± 0.19 kcal/mol
9,SGVLVVTHPDGSVSTVPFTHPDGLVVDISAGVDAPLYATVVRLLPDGTPEPLPVFEFDSIEDVLEALAEASA [r9_942_TrMRF],1.61 ± 0.023 kcal/mol
10,SAGGSAGGSAGMKTVTVTVPPSAGVDAVREALAAQGMTVTSVSREGDTLTVTTEAPPELLSAGGSAGGSAGG [r11_672_JUSTAS],0.024 ± 0.13 kcal/mol
11,SAGMPLSVEEAIALLRKEIEAIPVPPSVTEIEFEITIPADGRPVKITVKVNEGKLEITVTVGDKPIKIGSAG [r14_199_JUSTAS],2.17 ± 0.11 kcal/mol
12,SAGGSAGGSAGGMKIKTITGDPSTGVYTITFPDGKVETIPMTQEEVEALAKENPGIEITLSAGGSAGGSAGG [r7_175_JUSTAS],2.46 ± 0.097 kcal/mol
13,SAGGPRVFRLTYLDPETGEPRELRFSLPVPPAPDFISVYVNVPPELARRIAELLRELYPDKPVLVHRSAGGS [r8_437_TrMRF],2.68 ± 0.049 kcal/mol
14,SAGGMLRIRIDGREIEIGMTVEEILAAIEKELGREISPELREALRKAKTPEEIVEALRKLGLKIEIESAGGS [r16_601_TrROS_Hall],4.8 ± 0.087 kcal/mol
15,SAGGSAKPEKVIVLEIEIEMTPEEVKKLVEELLKEKFGVEIERIEVEVERLPDGTLKVRVRVVIRESAGGSA [r15_138_TrROS_Hall],3.17 ± 0.084 kcal/mol
16,SAGMKVTTKTYTLTLTLPDGTRELKVTFTTPPDGYTATITDPNSSKVITLPFSSEEEARSAIEAIAARLSAG [r5_480_JUSTAS],2.62 ± 0.092 kcal/mol
17,SAGGSAGGSAGGLEIVKEVIKNPLKNEPVEVLILIEKKEEPIEKTDLFEIPVKITIIPLSAGGSAGGSAGGS [r10_459_JUSTAS],0.812 ± 0.19 kcal/mol
18,SAGGSAGGSKITVERNEDGELFVRITFKDGKTITIKAKSVEELKEKLKELGFDVKVEVVERKPSAGGSAGGS [r20_124_TrROS_Hall],4.18 ± 0.087 kcal/mol
19,SAGSMPPSTTTSEEVTVGGKKVKRTTTVYRAPNGTPSVTSTYTLGETPGVEDPLSGKALTPEERAAAAASAG [r5_138_JUSTAS],0.668 ± 0.16 kcal/mol
20,SAGGSAGGSAGKLKIKKVKVVKTETFTLPNGYTIKVSYVEVEVDGKKYLFKSVEIYPKKESAGGSAGGSAGG [r11_129_TrROS_Hall],2.85 ± 0.15 kcal/mol
